This note sets out measurements from patent CN111662379A (JIANGSU DISEASE CONTROL AND PREVENTION CENTER JIANGSU …, dated 2020).

For test [1], the target named is 重组SARS-CoV-2刺突蛋白胞外区 (extra cellular domain of spike protein, S-ECD) (SARS-CoV-2, UniProt P0DTC2 14-1213). Description: SPR, Biacore 8K, S-ECD immobilised on a CM5 chip, antibody injected at 125nM~7.8nM.
Test [2] shares this target. The description is as above. This is another data set of the same source.
Test [3] deals with SARS-CoV-2 S蛋白 (on live virus, 江苏分离株 BetaCoV/JS03/human/2020) (SARS-CoV-2, UniProt P0DTC2 14-1273). Briefly: cell-based or functional assay.

B1: FC08 (antibody, V domains shown)
VH: VQLLQQSGAEVKKPGSSVKVSCKASGGTFSSYAISWVRQAPGQGLEWMGGIIPILGIANYAQKFQGRVTITADKSTSTAYMELSSLRSEDTAVYYCVRERGYSGYGAAYYFDYWGQGTLVTVSS
VL: QSVLTQPPSVSGAPGQRVTISCTGSSSNIGAGYDVHWYQQLPGTAPKLLIYGNSNRPSGVPDRFSGSKSGTSASLAITGLQAEDEADYYCQSYDSSLSGSVFGGGTKLTVL
A word on the Kd: it is the free concentration of one partner at which half of the binding sites on the other are occupied at equilibrium, for simple one-to-one binding. Consider B1, for which binding in test [1] was characterised by a dissociation constant (Kd) of 0.8 nM.

B2: FC11 (antibody, V domains shown)
VH: EVQLLESGGGVVQPGRSLRLSCAASGFTFSYYGMHWVRQAPGTGLEWVAVISYDGSNEYYADSVKGRFTISRDNSKNTLYLQMNSLRAEDTAVYYCAKAMFLGDSSGLTGLDMDVWGQGTTVTVSS
VL: DIELTQSPGTLSLSPGERATLSCRASQSVSSYLAWYQQKPGQAPRLLIYDASNRATGIPARFSGSGSGTDFTLTISSLEPEDFALYYCQQRGNWPPTFGGGTKLEIK
notes: also called FC11抗体
B2: in test [2], binding was put at a Kd of 0.5 nM.

B3: FC05 (antibody, V domains shown)
VH: VQLLEQSGAEVKKPGASVRVSCKVSGYTLPEVAMHWVRQAPGKGLEWMGGFDPEDGETIYAQKFQGRVTMTEDTSTDTAYMELSSLRSEDTAVYYCATTTPFSSSFWFDPWGQGTLVTVSS
VL: QSVLTQAPSVSGAPGQKVTISCSGSSSNIGNNYVSWYQQLPGTAPKLLIYDNNKRPSGIPDRFSGSKSGTSATLGITGLQTGDEADYYCGTWDSSLSAVVFGGGTKLTVL
In the case of B3, in test [3], the “IC50 (体外中和实验, live SARS-CoV-2 on Vero E6 cells, cytopathic effect)” value was 0.142 µg/mL.
